Key:
[1] = molecular target: HBV core protein mutant Cp-Y132A (assembly-incompetent) homodimer (hepatitis B virus (HBV)) (UniProt P03147); test: HAP-Alexa488 staining with photobleaching step counting
[2] = molecular target: HBV core protein mutant Cp-Y132A (assembly-incompetent) homodimer (hepatitis B virus (HBV)) (UniProt P03147); test: optical tweezers force spectroscopy

“HBV core protein mutant Cp-Y132A (assembly-incompetent) homodimer (from UniProt P03147 1-149) (natural protein)” was tested, and the stoichiometry N [1] was 2 Cp dimers and the ω (unitless association constant for two nucleic acid-bound ligands) [2] was 500.

— PMC8565845
